In the nanobody polyreactivity screen of Harvey et al. (2022):

Test: yeast display, Sf9 membrane polyspecificity reagent, FACS + sequencing; frameworks hold sequencing errors
Summary of the method: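 Synthetic nanobody libraries on Saccharomyces cerevisiae BJ5465 were galactose-induced for 36–48 hours, stained 1 hour at 4 °C with 10% biotinylated, detergent-solubilized Sf9 membrane reagent and enriched on streptavidin microbeads. FACS then separated cells into low and high (top ~1%) gates by anti-HA (expression) and streptavidin (reagent binding) fluorescence. Genes were colony-PCR amplified, MiSeq 2 × 250 sequenced and CDR-length filtered. A clone's polyreactivity label is that of its gate of origin.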
In the case of “QVQLVESGGLLVQGGVSLRLSCAASGSTLYIYAMGWYRQAPGKERELVAANTWSGGRTFYADSVKGRFTISRDNAKNTVSLQMNSLTPEDTAVYYCAARILSDKTGSRYYYWGQGTQVTVSS”, the “polyreactivity (PSR sort gate)” value is reported as “high polyreactivity”.
In the case of “QVQLVESGGRIVQAGGSLRLSCAASGSILNNYAMGWYRQAPGKERELVAAISSSGGTNYADSVKGRFTISRDNEKNTVFLQMNSLKPEDTAVYYCNADVLDGGYDYWGQGTQVTVSS”, the “polyreactivity (PSR sort gate)” value is reported as “low polyreactivity”.
For “QVQLVESGGRLLQAGGSLRLSCAASGSIFVGYAMGWYRQAPGKEWELVAAISASGGRTYYADSVKGRFTISRDNAKTTVYLQMNSLKPEDTAVYYCATDDYWGRGTQVTVSS”, the “polyreactivity (PSR sort gate)” value was “high polyreactivity”.
With “QVQLVESGGRLRQAGGSLRLSCAASGSTFVSYAMGWYRQAPGKERELVAAISTSGGRSYYADSVKGRFTISRDNAKNTVYLQMNSLKREDTAVYYCAAEHYQRWWPYWYWPYYWGQGTQVTVSS” the “polyreactivity (PSR sort gate)” value was “high polyreactivity”.
With “QVQLVESGGRLVHAGGSLRLSCAASGFTFSDYAMGGYRQEPGKERELVAAISTRGSSTYYADSVKGLFTISRDNEKTTVYLEMNSLKPEDTAVYYCNAVGSYSGYYYWGQGNQVTVSS” the “polyreactivity (PSR sort gate)” value was “high polyreactivity”.
In the case of “QVQLVESGGRLVKARGSLRISFADSVRTFIRNAMGWYRQAPGKERELVAAITSSGGSTYYADSVKGRFTISRDNAKITVYLQMNILKPEDTAVYYCAAVNSKRHRRYNYWGQGTQVTVSS”, the “polyreactivity (PSR sort gate)” value is reported as “high polyreactivity”.
For “QVQLVESGGRLVQAGGRLRLICAASGFIFSDYAMGWYRQAPGKERELVAAISWRGGSTYYADSVKGRFTISRDKEKNSVYLQMNSLKPEDTAVYYCAADYGAYDMDYWGQGTQVTVSS”, the “polyreactivity (PSR sort gate)” value was “high polyreactivity”.
With “QVQLVESGGRLVQAGGRLRLSCAASGSIFMKNAMGWYRPAHGKERELVADITRSGDRTYYADSVKGRFTISRDNAKNTVYLQMNSLKPEDTAVYYCAKYYVWPRYGYSGQGTQVTVSS” the “polyreactivity (PSR sort gate)” value was “high polyreactivity”.
For “QVQLVESGGRLVQAGGSHRLSCAASGRTFFHYAMGWYRQSPGKERELVAAITYRGTSTYYADSVKGRFTISRDNAKYTVYIQMNSLKPEDTAVYYCNAYSTRGGWSYRGDSWGQGTQVTVSS”, the “polyreactivity (PSR sort gate)” value was “high polyreactivity”.
For “QVQLVESGGRLVQAGGSLRISCDASGFIFVRNAMGWSRQAPGTEWELVAASTLCTGSTYYADSVKGRFTISRDNAKITVYLQMKSLKPEDTAVYYCNANKRIRPYRPGMDYWGHGTQVTVSS”, the “polyreactivity (PSR sort gate)” value was “high polyreactivity”.
In the case of “QVQLVESGGRLVQAGGSLRISSAASRFILFPYAMGWYRQAPGKERELVAAIRSDDTTNYADSVKGRFTISRDNAKNTVYLQMNSLKPEDTAVYYCATACYSWVSYDYWGQGTQVTVSS”, the “polyreactivity (PSR sort gate)” value is reported as “low polyreactivity”.
With “QVQLVESGGRLVQAGGSLRLICAASGSIFGHYAMGWYRQAPRKEREFVAAIDWSGGSSYYADSVKGRFTISRDNAKNTVYLQMISLKPEDTAVYYCAARVRERYYWGQGTQVTVSS” the “polyreactivity (PSR sort gate)” value was “high polyreactivity”.
For “QVQLVESGGRLVQAGGSLRLRCAASGRTFVTNAMGWYRQAPGQERELVAAISGSGGSTYYADSVKGRFTISRDNAKNTFYLQMNSLKPEDTAVYDCATSYSLGYVRYGYWGQGSQVTVSS”, the “polyreactivity (PSR sort gate)” value was “high polyreactivity”.
For “QVQLVESGGRLVQAGGSLRLRCAASGYIFVYNAKGWYRQAPGKARELVAAITDGGGSTYADSVKGRFTISRDNAKNTVYLQMNSLKPEDTAVYYCAARYSDTTWYVLYYYWVQGTQVTVSS”, the “polyreactivity (PSR sort gate)” value was “low polyreactivity”.
With “QVQLVESGGRLVQAGGSLRLSCAASGFIFWSYAMGWYRQARGKERELVAAISWSGGRTYYADSVKGRFTISRDNAKNTVYLQMNSLKPEDTAVYYCAAVKRYSSQYPALDYWGQGTQVTVSS” the “polyreactivity (PSR sort gate)” value was “high polyreactivity”.
In the case of “QVQLVESGGRLVQAGGSLRLSCAASGFTFYGYAMGWYRQAPGKERELVAAISRGGGRTYYADSVKGRFTISRDNAKNTVYLQMNSLKPEDTAVYYCAAQGGSKTSSRSYGYWGQGTQVTVSS”, the “polyreactivity (PSR sort gate)” value is reported as “high polyreactivity”.
For “QVQLVESGGRLVQAGGSLRLSCAASGFTIPHYAMGWYRQAPGKERELVAVISFSGGRTYYADSVKGRFTISRDNAKNTVYLQMNSLKPEDTAVYYCPAGFWDDYGKYYYWGQGTQVTVSS”, the “polyreactivity (PSR sort gate)” value was “high polyreactivity”.
With “QVQLVESGGRLVQAGGSLRLSCAASGFTYQGNAMGWYRQAPGKERVLVAAISRGGSTYYADSVKGRFTISRDNAKNTVYLQMNRLKPEDTAVYYGAAKPSVDLDYWGQGTQVTVSS” the “polyreactivity (PSR sort gate)” value was “high polyreactivity”.
In the case of “QVQLVESGGRLVQAGGSLRLSCAASGIFYTYDMGRYRQAPGKERELVATINSGGSTNYADSVKGRFTISRDNAKNTVYLQMNSLKPEDTAVYYCAAAEDVYSERPRYDYWGQGTQVTVSS”, the “polyreactivity (PSR sort gate)” value is reported as “low polyreactivity”.
With “QVQLVESGGRLVQAGGSLRLSCAASGITFYLYAMGWYRQAPGKERELVAAISSSGGSTYYADSVKGRFTISRDNEKNTVYLQMNSLKPEDTAVYYCAAVFYTSVTIYDYWGQGTQVTVSS” the “polyreactivity (PSR sort gate)” value was “high polyreactivity”.
With “QVQLVESGGRLVQAGGSLRLSCAASGNIFTVNAMGWYRQAPGKERELVAAISVGDGTTYYADSVKGRFTISRDNAKNTVYLQMNSLKPEDTAVYYCAAEGYTDYEYWGQGTQVTVSS” the “polyreactivity (PSR sort gate)” value was “high polyreactivity”.
For “QVQLVESGGRLVQAGGSLRLSCAASGNIFYYYAMGCYTQAHGKERELVAAISADCGRTYYADSVKGRFTISRDTAKNTVYLQMNSLQPEDTAVYYWNVLGRARTQTRYNYWGQGTQVTVSS”, the “polyreactivity (PSR sort gate)” value was “high polyreactivity”.
For “QVQLVESGGRLVQAGGSLRLSCAASGRIFLNYDMGWYRQAHGKERELVAAITWSTGSTYADSVKGRFTISRDNAKNNVYLKMNSLKPEVTAVYYCAAPWGQTDDRHKGGDYWGQGSQVTVSS”, the “polyreactivity (PSR sort gate)” value was “low polyreactivity”.
In the case of “QVQLVESGGRLVQAGGSLRLSCAASGRIFSPYAMGRYRPAPGKERELVAAITQSGGITSYADSVKGRFTISRDNAKNTVYLQMISLKPEDTAVYYCNKDVWDGYDWPEFDYWGQGTQVTVSS”, the “polyreactivity (PSR sort gate)” value is reported as “low polyreactivity”.
For “QVQLVESGGRLVQAGGSLRLSCAASGRILPGNAMGWYRQAPGKEREFVAAISYSGGRTYYADSVKGRFTISRDNAKNNVYLQMNSLKPEDTAVYSCAARSYGSAYYYWGQGTQVTVSS”, the “polyreactivity (PSR sort gate)” value was “high polyreactivity”.
With “QVQLVESGGRLVQAGGSLRLSCAASGRTFFGYAMGWYRQAPGKEWELVAAISSGGRTYYADSVKGRFTISRDNAQNTVYLQMNSLKPEDTAVYSCAAQYSARYYYWGQGTQVTVSS” the “polyreactivity (PSR sort gate)” value was “high polyreactivity”.
With “QVQLVESGGRLVQAGGSLRLSCAASGRTFGPYAIGRYRQAPGKERELVAAITDTGSGTYYADSVKGRFTISRDNAKNTVYLQMNSLKPEDTAVYYCNAVRKYWGQGTQVTVSS” the “polyreactivity (PSR sort gate)” value was “low polyreactivity”.
In the case of “QVQLVESGGRLVQAGGSLRLSCAASGRTFGSYAMGWFRQAPGKERELVATIRNSGGISYYADSVKGRFTISRDTAKNTVYLQMNSLKPEDTAVYDCAKLGRYGYDYWGQGTQVTVSS”, the “polyreactivity (PSR sort gate)” value is reported as “high polyreactivity”.
In the case of “QVQLVESGGRLVQAGGSLRLSCAASGRTFIKYAMGWYRQAPGKERELVAAISRNGGSTNYADSVKGRFTISRDNAKNTVYLQMNSLKPEDTAVYYCAAVGTVSRTVGYNYWGQGTQVTVSS”, the “polyreactivity (PSR sort gate)” value is reported as “high polyreactivity”.
In the case of “QVQLVESGGRLVQAGGSLRLSCAASGRTFRPYAMGWYRQAPGKERELVAAISSRGSSTYYADSVKGRFTISRDNAKNTVYLQMNSLKPEDTAVYYCAARSYWGGLRYDYWGQGTQVTVSS”, the “polyreactivity (PSR sort gate)” value is reported as “high polyreactivity”.
With “QVQLVESGGRLVQAGGSLRLSCAASGRTIVIYAMGWYRQAPGKEREFVAAISRSGGSTYYADSVKGRFTISRDNAKNTVYLQMNSLKPEDTAVYYCYTRTPYWFKSDYWGQGTQVTVSS” the “polyreactivity (PSR sort gate)” value was “low polyreactivity”.
In the case of “QVQLVESGGRLVQAGGSLRLSCAASGRTSGINAMGWYRQAPGKERELVAAISSGGRTYYADSVKGRFTISRDNAKNTVYLQMNSLKPEDTAVYYCAAVIHWSLYRRMEYWGQGTQVTVSS”, the “polyreactivity (PSR sort gate)” value is reported as “high polyreactivity”.
For “QVQLVESGGRLVQAGGSLRLSCAASGSIFGWYAMGWYRQAPGKESEFVASISVTAGSTYYADSVKWRFTISRDNAKNTVYLQMNSLKPEDTAVFYCAADDYTADAVQRFYYWGQGTQVTVSS”, the “polyreactivity (PSR sort gate)” value was “low polyreactivity”.
With “QVQLVESGGRLVQAGGSLRLSCAASGSIFRFNTMGWYRQAPGKERELVAVIRYRSGSTYYADTVKGRFTISRDNAKYTVYLQMNSLKPEDTAVYYCAAKRRSTYDYWGQGTQVTVSS” the “polyreactivity (PSR sort gate)” value was “high polyreactivity”.
With “QVQLVESGGRLVQAGGSLRLSCAASGSIFTFYALGWYRQAPGKESELVAAISYRGGSTYYADSVRGRFTISRDNAKNTVYLQMNRLKPEDTAVYFCAAGRFPVFFQGYRMEYWGQGTQVTVSS” the “polyreactivity (PSR sort gate)” value was “low polyreactivity”.
In the case of “QVQLVESGGRLVQAGGSLRLSCAASGSNLLWNTMGWYRQAPGKERELVAGITSGGNTYYADSVKGRFTISRDNAKNTVYLKMNSLKPEDTAVYYCSYYYWGQGTQVTVSS”, the “polyreactivity (PSR sort gate)” value is reported as “low polyreactivity”.
In the case of “QVQLVESGGRLVQAGGSLRLSCAASGSTFAANAMGRYRQDPGKDRELVAGITSSGGSTYYADSVKGRFTISRDNAKNTDYLQLTSLKPEDNAVYYCNKDNARYVRMYDSWGQGTQVTVSS”, the “polyreactivity (PSR sort gate)” value is reported as “low polyreactivity”.
For “QVQLVESGGRLVQAGGSLRLSCAASGSTFQFNVMGWYRQAPGKERELVAAITSGASTYYADSVKGRFTISRDNAKNTVYLQMNSLEPEDTAVYYCAVDYSFRYDYVQRYYYWGQGTQVTVSS”, the “polyreactivity (PSR sort gate)” value was “high polyreactivity”.
In the case of “QVQLVESGGRLVQAGGSLRLSCAASGSTFRKYAMGWYIQAPGKERELVASISRGGTTYYADSVKGRFTISRDNAKNTVYLQMNSLKPEDTAVYYCNKASYRWYWGYLDYYYWGQGTQVTVSS”, the “polyreactivity (PSR sort gate)” value is reported as “high polyreactivity”.
In the case of “QVQLVESGGRLVQAGGSLRLSCAASGSTFTRYVMGWYRQAPGKERELVAVISSSGGSTYYADSVKGRFTISRDNAKNTVYLQMNSLKPEDTAVYYCAARYSAKHYGYGYWGQGTQVTVSS”, the “polyreactivity (PSR sort gate)” value is reported as “high polyreactivity”.
With “QVQLVESGGRLVQAGGSLRLSCAASGSTIPYYTMGWYRQAPGKERELVAAIRYSGSSTYYADSVKGRFTISRDNAKNTVYLQMNSLKPEDTAVYYCAKTLWRRRGDRRYRVIEMDHWGQGTQVTVSS” the “polyreactivity (PSR sort gate)” value was “low polyreactivity”.
